# From paper PMC9482650, “Quantitative fragmentomics allow affinity mapping of interactomes” (Nature Communications, 2022)
# T1: ARHGEF11, O15085
# T1 sequence (O15085 42-136, limits assumed, looked up): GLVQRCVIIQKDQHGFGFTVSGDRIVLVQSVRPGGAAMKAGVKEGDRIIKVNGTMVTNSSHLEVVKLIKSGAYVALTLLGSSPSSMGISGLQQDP
# T2: DFNB31_1, Q9P202
# T2 sequence (Q9P202 135-233, limits assumed, looked up): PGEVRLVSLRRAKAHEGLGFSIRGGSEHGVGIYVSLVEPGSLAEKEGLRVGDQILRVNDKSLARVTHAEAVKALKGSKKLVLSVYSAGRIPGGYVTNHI
# T3: DFNB31_2, Q9P202
# T3 sequence (Q9P202 274-371, limits assumed, looked up): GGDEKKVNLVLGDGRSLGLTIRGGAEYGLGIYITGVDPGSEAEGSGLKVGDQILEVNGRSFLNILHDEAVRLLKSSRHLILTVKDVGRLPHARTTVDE
# T4: GRIP1_3, Q9Y3R0
# T4 sequence (Q9Y3R0 247-346, limits assumed, looked up): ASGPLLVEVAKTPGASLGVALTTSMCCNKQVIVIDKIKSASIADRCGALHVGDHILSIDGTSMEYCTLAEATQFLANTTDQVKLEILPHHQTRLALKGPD
# T5: LIN7C, Q9NUP9
# T5 sequence (Q9NUP9 88-185, limits assumed, looked up): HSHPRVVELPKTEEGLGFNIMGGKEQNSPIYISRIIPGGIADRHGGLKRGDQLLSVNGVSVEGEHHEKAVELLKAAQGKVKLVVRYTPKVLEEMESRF
# T6: LNX2_3, Q8N448
# T6 sequence (Q8N448 463-564, limits assumed, looked up): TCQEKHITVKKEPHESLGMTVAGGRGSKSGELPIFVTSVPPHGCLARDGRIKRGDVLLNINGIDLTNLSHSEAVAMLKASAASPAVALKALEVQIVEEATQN
# T7: MPP2, Q14168
# T7 sequence (Q14168 180-250, limits assumed, looked up): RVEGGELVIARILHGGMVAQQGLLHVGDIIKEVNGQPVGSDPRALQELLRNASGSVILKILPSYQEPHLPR
# T8: PARD3B_1, Q8TEW8
# T8 sequence (Q8TEW8 196-299, limits assumed, looked up): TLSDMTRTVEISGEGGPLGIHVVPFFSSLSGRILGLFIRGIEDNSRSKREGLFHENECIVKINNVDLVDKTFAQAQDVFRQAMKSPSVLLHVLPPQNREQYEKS
# T9: RADIL, Q96JH8
# T9 sequence (Q96JH8 971-1071, limits assumed, looked up): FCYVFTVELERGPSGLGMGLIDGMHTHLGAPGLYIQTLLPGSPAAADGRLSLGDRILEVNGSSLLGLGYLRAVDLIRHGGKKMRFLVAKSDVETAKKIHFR
# T10: SIPA1L2, Q9P2F8
# T10 sequence (Q9P2F8 945-1036, limits assumed, looked up): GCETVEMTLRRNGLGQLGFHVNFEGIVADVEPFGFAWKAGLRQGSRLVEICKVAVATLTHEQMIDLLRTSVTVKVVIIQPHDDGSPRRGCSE
# T11: SNTG2, Q9NY99
# T11 sequence (Q9NY99 68-166, limits assumed, looked up): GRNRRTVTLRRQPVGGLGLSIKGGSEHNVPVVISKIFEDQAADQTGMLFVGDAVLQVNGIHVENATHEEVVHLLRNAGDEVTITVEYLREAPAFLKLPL
# T12: TJP3_3, O95049
# T12 sequence (O95049 375-456, limits assumed, looked up): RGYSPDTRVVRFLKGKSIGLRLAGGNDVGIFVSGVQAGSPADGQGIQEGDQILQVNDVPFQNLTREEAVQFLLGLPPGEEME
# B1: NECTIN1, Q15223 (peptide)
# chain: SFISKKEWYV
# B2: SLCO1A2, P46721 (peptide)
# chain: LKDDELKTKL
# Columns and labels:
# Test in all cases: holdup assay
# Set-up in all cases: key: below the threshold = too weak to quantify, mostly under pKd 3.1 to 4
# Details in all cases: plain residues with an end cap or a label only (N-terminal biotin on a linker: ado-ado)
# ARHGEF11, O15085 = molecular target: T1, ARHGEF11, O15085
# CASK, O14936 = molecular target: CASK, O14936
# DFNB31_1, Q9P202 = molecular target: T2, DFNB31_1, Q9P202
# DFNB31_2, Q9P202 = molecular target: T3, DFNB31_2, Q9P202
# DLG1_2, Q12959 = molecular target: DLG1_2, Q12959
# DLG5_1, Q8TDM6 = molecular target: DLG5_1, Q8TDM6
# FRMPD2_1, Q68DX3 = molecular target: FRMPD2_1, Q68DX3
# FRMPD3, Q5JV73 = molecular target: FRMPD3, Q5JV73
# GIPC2, Q8TF65 = molecular target: GIPC2, Q8TF65
# GRIP1_3, Q9Y3R0 = molecular target: T4, GRIP1_3, Q9Y3R0
# GRIP2_7, Q9C0E4 = molecular target: GRIP2_7, Q9C0E4
# Inadl_5, Q8NI35 = molecular target: Inadl_5, Q8NI35
# LIN7C, Q9NUP9 = molecular target: T5, LIN7C, Q9NUP9
# LNX2_3, Q8N448 = molecular target: T6, LNX2_3, Q8N448
# MAGI1_2, Q96QZ7 = molecular target: MAGI1_2, Q96QZ7
# MAGI2_2, Q86UL8 = molecular target: MAGI2_2, Q86UL8
# MAGI2_4, Q86UL8 = molecular target: MAGI2_4, Q86UL8
# MAST1, Q9Y2H9 = molecular target: MAST1, Q9Y2H9
# MPP2, Q14168 = molecular target: T7, MPP2, Q14168
# PARD3B_1, Q8TEW8 = molecular target: T8, PARD3B_1, Q8TEW8
# RADIL, Q96JH8 = molecular target: T9, RADIL, Q96JH8
# SIPA1L2, Q9P2F8 = molecular target: T10, SIPA1L2, Q9P2F8
# SNTG2, Q9NY99 = molecular target: T11, SNTG2, Q9NY99
# TJP1_2, Q07157 = molecular target: TJP1_2, Q07157
# TJP2_1, Q9UDY2 = molecular target: TJP2_1, Q9UDY2
# TJP3_3, O95049 = molecular target: T12, TJP3_3, O95049
# Chain of MAGI1_2, Q96QZ7 (Q96QZ7 456-580): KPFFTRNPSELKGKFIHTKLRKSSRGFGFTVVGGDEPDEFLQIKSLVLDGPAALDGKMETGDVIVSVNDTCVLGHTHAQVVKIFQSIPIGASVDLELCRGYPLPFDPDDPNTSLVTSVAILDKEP
# Chain of FRMPD2_1, Q68DX3 (Q68DX3 770-861): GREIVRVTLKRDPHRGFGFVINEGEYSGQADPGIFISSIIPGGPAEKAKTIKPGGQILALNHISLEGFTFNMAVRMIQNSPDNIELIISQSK
# Chain of MAST1, Q9Y2H9 (Q9Y2H9 962-1065): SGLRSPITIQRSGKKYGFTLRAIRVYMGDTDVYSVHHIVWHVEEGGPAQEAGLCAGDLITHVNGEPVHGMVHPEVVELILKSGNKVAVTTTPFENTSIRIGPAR
# Chain of MAGI2_2, Q86UL8 (Q86UL8 410-522): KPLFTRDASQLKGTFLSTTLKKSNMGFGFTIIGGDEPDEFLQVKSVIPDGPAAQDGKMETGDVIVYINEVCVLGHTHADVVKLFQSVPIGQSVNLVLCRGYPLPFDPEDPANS
# Chain of TJP2_1, Q9UDY2 (Q9UDY2 24-128): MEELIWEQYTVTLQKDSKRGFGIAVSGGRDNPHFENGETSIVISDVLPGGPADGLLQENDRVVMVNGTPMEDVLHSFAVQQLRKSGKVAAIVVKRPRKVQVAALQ
# Chain of MAGI2_4, Q86UL8 (Q86UL8 772-865): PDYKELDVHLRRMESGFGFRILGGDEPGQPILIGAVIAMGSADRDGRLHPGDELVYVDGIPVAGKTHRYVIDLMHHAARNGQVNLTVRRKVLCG
# Chain of DLG1_2, Q12959 (Q12959 314-412): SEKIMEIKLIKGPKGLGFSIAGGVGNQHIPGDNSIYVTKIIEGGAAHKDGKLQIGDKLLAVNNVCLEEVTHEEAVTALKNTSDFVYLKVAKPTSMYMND
# Chain of GRIP2_7, Q9C0E4 (Q9C0E4 934-1023): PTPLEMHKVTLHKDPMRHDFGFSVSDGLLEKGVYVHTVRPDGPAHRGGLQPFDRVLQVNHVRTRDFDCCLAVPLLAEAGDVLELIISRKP
# Chain of FRMPD3, Q5JV73 (Q5JV73 12-100): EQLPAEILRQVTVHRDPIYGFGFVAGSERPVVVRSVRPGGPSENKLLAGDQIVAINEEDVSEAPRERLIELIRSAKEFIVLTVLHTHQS
# Chain of CASK, O14936 (O14936 487-570): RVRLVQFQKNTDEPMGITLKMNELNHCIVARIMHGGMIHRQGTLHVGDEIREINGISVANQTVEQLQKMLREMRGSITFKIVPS
# Chain of TJP1_2, Q07157 (Q07157 181-274): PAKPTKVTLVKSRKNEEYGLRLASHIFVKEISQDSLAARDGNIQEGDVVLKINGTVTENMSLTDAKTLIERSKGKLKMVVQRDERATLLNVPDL
# Chain of DLG5_1, Q8TDM6 (Q8TDM6 617-713): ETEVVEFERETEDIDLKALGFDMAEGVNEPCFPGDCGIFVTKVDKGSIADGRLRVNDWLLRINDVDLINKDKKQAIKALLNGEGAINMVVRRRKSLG
# Chain of Inadl_5, Q8NI35 (Q8NI35 673-780): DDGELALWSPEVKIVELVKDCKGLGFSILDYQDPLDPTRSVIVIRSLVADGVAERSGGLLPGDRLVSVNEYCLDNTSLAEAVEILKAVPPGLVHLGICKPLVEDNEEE
# Chain of GIPC2, Q8TF65 (Q8TF65 112-203): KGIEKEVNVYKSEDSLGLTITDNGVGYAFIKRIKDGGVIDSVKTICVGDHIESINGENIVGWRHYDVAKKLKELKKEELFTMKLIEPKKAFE
Binder,"pKd (ARHGEF11, O15085)","pKd (CASK, O14936)","pKd (DFNB31_1, Q9P202)","pKd (DFNB31_2, Q9P202)","pKd (DLG1_2, Q12959)","pKd (DLG5_1, Q8TDM6)","pKd (FRMPD2_1, Q68DX3)","pKd (FRMPD3, Q5JV73)","pKd (GIPC2, Q8TF65)","pKd (GRIP1_3, Q9Y3R0)","pKd (GRIP2_7, Q9C0E4)","pKd (Inadl_5, Q8NI35)","pKd (LIN7C, Q9NUP9)","pKd (LNX2_3, Q8N448)","pKd (MAGI1_2, Q96QZ7)","pKd (MAGI2_2, Q86UL8)","pKd (MAGI2_4, Q86UL8)","pKd (MAST1, Q9Y2H9)","pKd (MPP2, Q14168)","pKd (PARD3B_1, Q8TEW8)",further results
B1,4.41,below the threshold,below the threshold,below the threshold,3.77,below the threshold,4.22,3.94,below the threshold,below the threshold,5.62,4.82,below the threshold,below the threshold,4.28,4.96,3.8,3.95,4.46,4.73,"pKd (RADIL, Q96JH8): 4.94; pKd (SIPA1L2, Q9P2F8): below the threshold; pKd (SNTG2, Q9NY99): 3.49; pKd (TJP1_2, Q07157): below the threshold; pKd (TJP2_1, Q9UDY2): 4; pKd (TJP3_3, O95049): 4.1"
B2,3.98,below the threshold,below the threshold,below the threshold,below the threshold,below the threshold,below the threshold,below the threshold,below the threshold,below the threshold,below the threshold,below the threshold,below the threshold,below the threshold,below the threshold,below the threshold,below the threshold,4.64,below the threshold,3.84,"pKd (RADIL, Q96JH8): below the threshold; pKd (SIPA1L2, Q9P2F8): below the threshold; pKd (SNTG2, Q9NY99): below the threshold; pKd (TJP1_2, Q07157): below the threshold; pKd (TJP2_1, Q9UDY2): below the threshold; pKd (TJP3_3, O95049): below the threshold"
